Reference: a protein production outcome set (Wang et al. 2014)

Assay: label from the status in PepcDB records
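Also: failed if final PepcDB status was selected cloned or expressed and not failed if soluble or beyond.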

Sequence | protein production
MNLFKKIIFGAAVMGLMAAGDASAAGKIVIDGSTTVGPIAKAFAAYFHKKTGIDVTVSESGSGNGAKSLINKTCDIADMSRPMEPKEIAAAKANGVNPVEHVVALDGLSMIVHPSNPVAKLTTAQIHDIYLGKITNWKQVGGPNAQIVFVQRESNSGTQECFEKLVMKDDKIAPAAETAASNGAVKSRVASTPNAIGFVGLGFVDKSVKPLIVNGVKPSIATVRNGSYVLHRPLFMYTNGQPKGDVAKFINLPKTPDGKRMISELGFVNK | failed
MKTTALRLYGKRDLRLETFDLPEMQEDEILATVVTDSLCLSSWKEANLGENHKKVPDDVTTNPIIIGHEFCGDILAVGKKWQHKFQPGQRYVIQANLQLPDRPDCPGYSFPWVDGEATHVVIPNEVMEQYCLLAYDGETYFEGSLVEPLSCVIGAFNANYHLQEGSYNHTMGIRPQGHTLILGGTGPMGLLAIDYALHGPVNPSLLVITDTDNDKLSYARKHYPSEPQTLIHYLNATDAAFDTLMALSGGHGFDDIFVFVPNEGLVTLASSLLATDGCLNFFAGPQDKHFSAPINFYDVHYAFTHYVGTSGGNTDDMRAAVKLIEEKKVQAAKVVTHILGLNAAGETTLELPAVGGGKKLVYTGKYLPLTSLTQIQDQALAAILARHQGIWSGEVEQYLLAHAEAISHDLEHHHHHH | failed
PETVCWGHVEEVELINDGSGLGFGIVGGKTSGVVVRTIVPGGLADRDGRLQTGDHILKIGGTNVQGMTSEQVAQVLRNCGNSVRMLVARDPAGDISVT | not failed
MSELVRKLSGTAPNPAFPRGAVDTQMHMYLPGYPALPGGPGLPPGALPGPEDYRRLMQWLGIDRVIITQGNAHQRDNGNTLACVAEMGEAAHAVVIIDATTTEKDMEKLTAAGTVGARIMDLPGGAVNLSELDAVDERAHAADWMVAVQFDGNGLLDHLPRLQKIRSRWVFDHHGKFFKGIRTDGPEMAALLKLIDRGNLWFKFAGVYESSRKSWPYADVAAFSRVIAAHAPERIVWGTNWPHNSVRETAAYPDDARLAELTLGWLPDEAARHRALVENPEALFKLSPVKAT | failed
YNFSFLSPQGLSFASQGPSAPFWSVFTPRVIGTAVARYNFAARDMRELSLREGDVVRIYSRIGGDQGWWKGETNGRIGWFPSTYVEEEGIQ | failed
MNIEEFTSGLAEKGISLSPRQLEQFELYYDMLVEWNEKINLTSITEKKEVYLKHFYDSITAAFYVDFNQVNTICDVGAGAGFPSLPIKICFPHLHVTIVDSLNKRITFLEKLSEALQLENTTFCHDRAETFGQRKDVRESYDIVTARAVARLSVLSELCLPLVKKNGLFVALKAASAEEELNAGKKAITTLGGELENIHSFKLPIEESDRNIMVIRKIKNTPKKYPRKPGTPNKSPIEG | not failed
MGNIGSPPKFDEYPNGNEEPRRVLRLNVYFDNPVQNKDGAYDDRGGFWAPVDWWHRDAERWATLFAKGMRVAVRGHLERDDWTDGDGEPHTTYKVDARSVGILPYRLDAVHLSPLEHHHHHH | failed
EEKVVAEQQADGTWLMDGWISIRKASNLLEHDLVDEAERYSTLGGYLLWQFGYIPAAGEQITVDGLIFEIVSVNKHNIGKVRVHRTQ | not failed
MHIAIIGDQAATRQATTQLLSQLTTPTQPLQVTAYPTAEAFLFADQPADLLLLDIKLGSGMDGMTLAKQIREHDAATAIAFVSNYDEFVFDGYDVNALDYVIKPITSDKLQHLISKVAAQTQPKLLVFTTANGIQRVAMYDISAIEVTDHRLQVHTQKMTYTVAGQLKEFLPQLDENFIQIYRSIVINLNFLSQLEKNTVVMADGTSYPVSRQQAPLVKQAFFKHFRGLAHDSELEHHHHHH | failed
MIIKGRAHKFGDDVDTDAIIPGPYLRTTDPYELASHCMAGIDENFPKKVKEGDVIVAGENFGCGSSREQAVIAIKYCGIKAVIAKSFARIFYRNAINVGLIPIIANTDEIKDGDIVEIDLDKEEIVITNKNKTIKCETPKGLEREILAAGGLVNYLKKRKLIQSKKGVKT | not failed
MAQHTVYFPDAFLTQMREAMPSTLSFDDFLAACQRPLRRSIRVNTLKISVADFLQLTAPYGWTLTPIPWCEEGFWIERDNEDALPLGSTAEHLSGLFYIQEASSMLPVAALFADGNAPQRVMDVAAAPGSKTTQISARMNNEGAILANEFSASRVKVLHANISRCGISNVALTHFDGRVFGAAVPEMFDAILLDAPCSGEGVVRKDPDALKNWSPESNQEIAATQRELIDSAFHALRPGGTLVYSTCTLNQEENEAVCLWLKETYPDAVEFLPLGDLFPGANKALTEEGFLHVFPQIYDCEGFFVARLRKTQAIPALPAPKYKVGNFPFSPVKDREAGQIRQAATGVGLNWDENLRLWQRDKELWLFPVGIEALIGKVRFSRLGIKLAETHNKGYRWQHEAVIALASPDNMNAFELTPQEAEEWYRGRDVYPQAAPVADDVLVTFQHQPIGLAKRIGSRLKNSYPRELVRDGKLFTGNA | not failed
MRKSDREAFLSSVLGNEQPPAHLARTVIEEKLRNAIIDGSLPSGTALRQQELATLFGVSRMPVREALRQLEAQSLLRVETHKGAVVAPLITEDAVDAYALRILLESEALRLSIPLLDADDLAAAASYIEQLEVETDFGQIGRLNRMFHLSLYAKTHNKRLMRLVEEGLNEEERFLRFNLSSMGLGKLSQDDHWQLLRLAEQKAVEPCVEALQYHLNRGVQAVTQYLQSQKAGNVKPARTKKNTPA | not failed
MKSLGRHLVAEFYECDREVLDNVQLIEQEMKQAAYESGATIVTSTFHRFLPYGVSGVVVISESHLTIHTWPEYGYAAIDLFTCGEDVDPWKAFEHLKKALKAKRVHVVEHERGRYDEIGIPEDSPHKAAV | not failed
MSHKCFKDESFETRISCPLCQKELIMTWQRDNIPYFGEIMYVSAKCPCSFRFADTMILSSKEPMRYELSVESPEDLDARVIRSTSGTIRIPEMGIVVEPGTVSDSYITNIEGVLQRVQNVLMTASRWVREDEEKFARSQELLCMLNEVIEGRRAITVIIEDPLGNSAIISKKAVASKLSKEEAEKLNTGMIVFDVDKSELAHDISDNVKPLGGDLEHHHHHH | not failed
MQIPHGELRTLTYHSNALKSERQMYVWTPPGYSESSKPLPVLYFYHGFGDTGASAVVQGRIPQMMDNLLAEKKIEPMLVVIPDTETDVPGIIPEEYPPQERRKVFYPRNALAADRELIHDIIPAIGKRFNVRQDANGRALAGLSQGGYQALVSGMSHLDHFGWLATFSGVTTETVPNMAVAAQLERPEQINQQLKNLTVVIGETDNITGKDIAGLKTMLEQKNIRFDYTHYPNLGHEMDVWRPAYSEFVQKLFKLEHHHHHH | not failed
MADHSIQGKVALIAGGAKNLGGLIARDLAAHGARAIAIHYNSPASKADADATVAALQAAGAQAVALQGDLTTAAAVEKLYADALAAVGRPDIAINTVGKVLKKPFSEISEAEYDEMAAVNAKSAFFFLKEAGRHVNDHGKIVTLVTSLLGAFTPFYSAYAGTKAPVEHYTRAAAKEFGARGISVTAVGPGPMDTPFFYGQESPEAVAYHQSAAALSPHSPTGLTHIEDVVPFIRHLVSDGWWITGQTLLINGGYTTK | not failed
MAAAVSTVGAINRAPLSLNGSGSGAVSAPASTFLGKKVVTVSRFAQSNKKSNGSFKVLAVKEDKQTDGDRWRGLAYDTSDDQQDITRGKGMVDSVFQAPMGTGTHHAVLSSYEYVSQGLRQYNLDNMMDGFYIAPAFMDKLVVHITKNFLTLPNIKVPLILGIWGGKGQGKSFQCELVMAKMGINPIMMSAGELESGNAGEPAKLIRQRYREAADLIKKGKMCCLFINDLDAGAGRMGGTTQYTVNNQMVNATLMNIADNPTNVQLPGMYNKEENARVPIICTGNDFSTLYAPLIRDGRMEKFYWAPTREDRIGVCKGIFRTDKIKDEDIVTLVDQFPGQSIDFFGALRARVYDDEVRKFVESLGVEKIGKRLVNSREGPPVFEQPEMTYEKLMEYGNMLVMEQENVKRVQLAETYLSQAALGDANADAIGRGTFYGKGAQQVNLPVPEGCTDPVAENFDPTARSDDGTCVYNF | failed
METRAHHVLIGLFSVIVIGAALLFGLWLAKSGSEGKFNYYDIVFNEAVSGLSQGSSVQYSGIKVGDVAFLRLDPKDPRKVWARIRVVASAPIKQDTTAKLALTGITGTSIIQLSSGTPASPMLEGKDGKIPVIVATPSPLTQLLSNGEDLMGNINQLIARFSNLLSEENTARISRTLDHLDQATGALSAERENVSAVMQQLAQASRQANAALAQASELMRSANGLLNEQGKGMLENANKTMASLERTSATLDQLISENRHSLDGGIQGLAELGPAVSELRDTLAALRGISRRLEENPANYLLGREKTKEFTP | failed
MREIPLVSVALATYNGERYLRRQLDSVLAQTYRNIEIVVSDDCSRDGTVAILEEYRRAHGITFRVNERNLGFVRNFERALAGCRGEFIALSDQDDIWLPEKIETLVREIGPHSLIYTDALLIDGDDQPLPGSLVEVSGVRPVSGTCFEYFVCNNCVTGCTAMLRRDLLATALPIPEAETYHDWWLAVAASRRNGVVYHAAKLTEYRQHAHNYTGANVRAGLPARIAAHLMGKTAAEKRGYYELLANRARRYRAMADRLNLTPAERSFLEEIGEYAESLLSGGNRMKTFALALKYRETLFPAAGRWEKLLFVFSKLIAARAILEHHHHHH | not failed
MTEDERFAWLQLAFTPYIGAESFLLLMRSFGSAQNALSAPAEQVAPAVRHKHALEAWRNAEKRALARQAAEAALEWEMRDGCRLMLLQDEDFPEMLTQGLTAPPVLFLRGNVRLLHKPSAAIVGSRHATPQAMRIAKDFGRALGGKGIPTVSGMASGIDTAAHQGALEAEGGTVAVWGTGIDRIYPPANKNLAYEIAEKGLIVSEFPIGTRPYAGNFPRRNRLIAALSQVTLVVEAALESGSLITAGLAAEMGREVMAVPGSIDNPHSKGCHKLIKDGAKLTECLDDILNECPGLLQNTGASSYSINKDTPDTGRRAVQTAYAPPPAAKMPSEGAAGGTAVGGILDKMGFDPVHPDVLAGQLAMPAADLYAALLELELDGSVAAMPGGRYQRIRT | failed
AIARTDSSKMTDVESGVANFASSARAGRRNALPDIQSSAATDGTSDLPLKLEALSVKEDAKEKDEKTTQDQLEKPQNEEK | failed
MGWFSAPEYWLGRLALERGTAIIYLIAFVAAAQQFRPLIGEHGMLPVPRYLAGQSFWRTPSIFHFRYSDRVFAGVCWLGAVLSAAVVAGAASFVPLWATMLIWLTLWVLYLSIVNVGQAWYSFGWESLLLETGFLMIFLGNERTAPPILTLLLARWLLFRVEFGAGLIKMRGDSCWRSLTCLYYHHETQPMPGPLSWFFHHLPKPLHRIEVAGNHFAQLVVPFGLFTPQPAASIAAAIIVVTQLWLVASGNFSWLNWLTILLACSAIDTSSAAALLPMPAQPALSAPPQWFAGLVVVFTAAVLLLSYWPARNLLSSHQRMNMSFNPFHLVNTYGAFGSICRTRREVVIEGTDESPITEQTVWKAYEFKGKPGDPRRLPRQWAPYHLRLDWLMWFAAISPGYALPWMTPFLNRLLRNDPATLKLLRHNPFPQSPPRYVRAQLYQYRFTTVAELRRDRAWWHRTLIGRYVPPMSLRKVASPPAD | failed
MMIDPELRPAFLPAGKLRAAINLGNPILAGTDAAGQAVGVSVDLAREFARRLNAGIELRVFDTAGQSVDAVTREEADIGFFAIDPARGAGIAFTGPYVLIEGAYLVRDDSPLQANEDVDRAGKRVTVGKGSAYDLHLTRALQHAEIVRAASSQAVVDTFLARRLDVAAGVKQQLQADARRVGGVRLLPGRFMVIRQAMGLPKARGDAAAACLDAFVESMKGNGFVAQALARHGLEHHHHHH | failed
MINEFFKETVWEEAWKEDQQTAVNKMKKAGMDKVHHFDLRAKSFNEQAFNEEGRKRTKRIMKWLEGQGVTFKDTSILDIGAASGGFTVPFAERGAEVTAVEPSLPLVELMKENITGITNGKVKIVAEPFEDIDIQAKGWGNAFDFVFVSMCPAIADWESVKRVLSCARQFCYISLSAGSREHSLLNEIWPLVSDQPLKNEHSEMAYLLHLLFLKGYTYESLVTREMKTREVSRETALNEVMDMLRMFGLPADDRNRKITAAYLERTYPNDKVEIRQGGRFGKVLIRLQNQNMYMNS | failed
